Columns and labels:
[1] = target: T1, rat promyostatin (rat, UniProt O35312 25-376); assay: biolayer interferometry (ForteBio Octet QKe), apitegromab on human Fc capture tips, promyostatin in solution, 1:1 global fit, single concentration
Procedure: (§1) All baseline steps, loading of biotinylated antigens, and antibody association and dissociation steps were performed in 1× kinetics buffer containing PBS pH 74 with 0.002% Tween 20 and 0.01% BSA. Association proceeded for 300 seconds and dissociations were then performed in 1× kinetics buffer for at least 600 seconds. Data analysis was performed on FortèBio Data Analysis software version 8.2. A 1:1 global fitting model considering both association and dissociation was then utilized for the single concentration KD determination for each antigen antibody/construct pair.

[2] = target: T2, cynomolgus monkey promyostatin (cynomolgus monkey, UniProt Q95J86 19-375); assay: as above
T2 construct: also called cynomolgus promyostatin
Procedure: as §1

[3] = target: T1, rat promyostatin; assay: cell-based or functional assay
[4] = target: T2, cynomolgus monkey promyostatin; assay: cell-based or functional assay

B1: Apitegromab (antibody, human IgG4 S228P, lambda, V domains shown)
VH: QVQLVESGGGVVQPGRSLRLSCAASGFTFSSYGMHWVRQAPGKGLEWVAVISYDGSNKYYADSVKGRFTISRDNSKNTLYLQMNSLRAEDTAVYYCARDLLVRFLEWSHYYGMDVWGQGTTVTVSS
VL: not shown
notes: Fully human monoclonal IgG4/lambda; also called SRK-015; anti-pro/latent myostatin antibody
With B1 the Kd [1] was 2 nM, the Kd [2] was 4.86 nM and the “IC50 of inhibition of proteolytic activation of promyostatin (SMAD-responsive luciferase reporter cells)” value [3] was 153 nM. For the same binder, the “IC50 of inhibition of proteolytic activation of promyostatin (SMAD-responsive luciferase reporter cells)” value [4] was 584 nM.

Reference: US20240002490A1 (SCHOLAR ROCK, published 2024)
